From the DeepSol protein solubility set

Assay: soluble on expression in E. coli; label from the status in PepcDB or PDB records

Question: Which “soluble on expression in E. coli” value does the source give for “MVAEGFRLDLLLTIAQLVPSTYHYQVKQLDKPDKDKDLKAEIQAIYDEHKGNYGYRRIHLELRNRGFSVNHKKVQGLMKELGLTARIRRRKRYKSYKGDVGKKAPNLIERAFEGAKPFEKCYTDVTEFALPNCAEKLYLSPVLDGYNSEIIDFTLSRSPNLIQVKTMLEKVFPEETYPNTILHSDQGWQYQHEVYHRFLASKGIRPSMSRKGTSTDNSMMESFFGVLKTEMFYGFEKNFKSLDQLEQAITEYIFYYNNKRIKTKLKGLSPVQYRTKSFQ” here?
Answer: The value was “not soluble”.

Question: With “MVAIDYVVIGAGYAGLMCAEALMDKGFKTLVFDMRESGGEIVVFSKLEEFRSKYEKYIEKIEEIRKDIPVDIGTVIKSKPVIINSGNGLKRYEARRVILATGATDTAPVKLNVLSKKIEGIYTLENALREISENNKIGEKVLIAAKDDVIVKLAESQLSDLGYDVEISELTNDIQVIGKERVEGVEISGVRYSCDTLVVYGGRNPFNPLKLRGTPVGNVVTCTYDYSKVEENVKNFLAKILEHHHHHH” as the sequence, how does the “soluble on expression in E. coli” value read?
Answer: The value was “not soluble”.

Question: For “MVARISVGKNLYGALAYNQNKVDEGGAKVLSAHLLRYPEDGRFRPDESVRQFLEWMPNHYRTEKPVIHISLNPHPDDVLTDGQLAEIGREYMQRLGYGNQPYLVFKHEDIGRHHIHIVSLRVDSEGRKVSDKFEYRRSKEITELLEQKYGLHPAEGRKKGEEWQLKPVDVAKGDIKRQIACTLKPLLELYSFRTMGELRALLSLYNIGVEEVKGEIGGRTYHGILYTALDGNGETAATPIKSSRLGRTAGAQQLDRKMRESAARIKSAPCRERLRPLVADALRQSVDERDFRDRLAKEQIDLVLRRNGTDRIYGVTFIDHRSRTVLNGSRLGKEFSANMLNGHFQEQPPNSLSPLLPPVPSAVASGNGEKIPGGLLSDMEPELNYVPRYPKLLKPDKKKRRRRYGRQDLEHHHHHH”, which “soluble on expression in E. coli” value is on record?
Answer: Its value is “soluble”.

Question: With “MVDLEQEFALGGRCLAFHGPLMYEAKILKIWDPSSKMYTSIPNDKPGGSSQATKEIKPQKLGEDESIPEEIINGKCFFIHYQGWKSSWDEWVGYDRIRAYNEENIAMKKRLANEAKEAKKSLLEHHHHHH” as the sequence, how does the “soluble on expression in E. coli” value read?
Answer: The value was “soluble”.

Question: For “MVDMKTTHTSLPFAGHTLHFVEFDPANFCEQDLLWLPHYAQLQHAGRKRKTEHLAGRIAAVYALREYGYKCVPAIGELRQPVWPAEVYGSISHCGATALAVVSRQPIGVDIEEIFSAQTATELTDNIITPAEHERLADCGLAFSLALTLAFSAKESAFKASEIQTDAGFLDYQIISWNKQQVIIHRENEMFAVHWQIKEKIVITLCQHD”, which “soluble on expression in E. coli” value is on record?
Answer: Its value is “not soluble”.

Question: For “MVEFVNDPNFKDLVVDTTIDNRNDEEPMTIRNFTELMIQFYKLGWMRGSGGAMGCISGSELMISPSALQKERIREQDVFVYNMKDKTEVQRPPNKRITVSSCSVLFSLIMKETGSECVIHTHSKCANLITQLIKSNVFEISHQEYIKGIYDPFSGKALKYSDTLTIPIIDNMPSESQLLVCAINRSPMQPDCFINIALFQEPIRGVLENYPQAIAVLVRNHGLFVWGPTWESTKIMTECIDYLLELSIEMLKNNIPLVNEEAFEKEDNLSDKMRTLMFGDMAPV”, which “soluble on expression in E. coli” value is on record?
Answer: Its value is “not soluble”.

Question: With “MVEPQHNVMQMGGDFANNPNAQQFIDKMVNKHGFDRQQLQEILSQAKRLDSVLRLMDNQAPTTSVKPPSGPNGAWLRYRKKFITPDNVQNGVVFWNQYEDALNRAWQVYGVPPEIIVGIIGVETRWGRVMGKTRILDALATLSFNYPRRAEYFSGELETFLLMARDEQDDPLNLKGSFAGAMGYGQFMPSSYKQYAVDFSGDGHINLWDPVDAIGSVANYFKAHGWVKGDQVAVMANGQAPGLPNGFKTKYSISQLAAAGLTPQQPLGNHQQASLLRLDVGTGYQYWYGLPNFYTITRYNHSTHYAMAVWQLGQAVALARVQ” as the sequence, how does the “soluble on expression in E. coli” value read?
Answer: The value was “soluble”.

Question: Which “soluble on expression in E. coli” value does the source give for “MVEVPSFRSNEHFPQLCDKVTVKWDKKRGRFVEAIEDIPIGTVVCVETGITVNVDPQNCYRCLKITENASFAYCKNCEEFYEPDEIACGEFDELGIFKLAAHLVFSYPFADIASLVQSSDPEPPSCAPKALSTQDIEAIFQLTPFPEIGEAFKAPAIQNAIKRIVESLETDENWGRLDQISRTMTFTKALRIMAERSAKNAHTIYSIEQIESQEDNLPMATGLFPISSIFNHSCTPNISGFFVRNTFIFVSQGVRAREELLDSYGVTYHQHTFEQRTNFLASVSGFICHCESCFKMKSLKVLEKPKKYPETIATNASCFTDITSYTENIPRGSKELENLIIAFARRPDSETYTELIFQFWKKFVENAKFRGITYDPYLVRPYVEMTILAWNKEVGCENEEKMSLLIVTHRLLRNCYVDLHPLSELVVKLVNVVANQNADEINRTLEKLKLRARMLWKYSEQSEDL” here?
Answer: The value was “not soluble”.
